Test results as given in US20140219913A1.

Target: TNF-alpha
Assay: cell-based or functional assay

N-terminal L929 Assay (EC50, pM): 1.5 pM
Substance: Etanercept (Fc fusion)
